Measured values: IntAct's records for PubMed 10064581

B1: Circadian clock oscillator protein KaiA (Synechococcus elongatus (strain PCC 7942)), Q79PF6 (parent)
chain: MLSQIAICIWVESTAILQDCQRALSADRYQLQVCESGEMLLEYAQTHRDQIDCLILVAANPSFRAVVQQLCFEGVVVPAIVVGDRDSEDPDEPAKEQLYHSAELHLGIHQLEQLPYQVDAALAEFLRLAPVETMADHIMLMGANHDPELSSQQRDLAQRLQERLGYLGVYYKRDPDRFLRNLPAYESQKLHQAMQTSYREIVLSYFSPNSNLNQSIDNFVNMAFFADVPVTKVVEIHMELMDEFAKKLRVEGRSEDILLDYRLTLIDVIAHLCEMYRRSIPRET
partner: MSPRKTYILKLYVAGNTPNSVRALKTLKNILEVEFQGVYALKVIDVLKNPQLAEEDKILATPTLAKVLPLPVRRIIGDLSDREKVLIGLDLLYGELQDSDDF

Variants of: B1
Settings: with kaib_syne7 kaiB

| Variant | effect of a mutation on the interaction |
| --- | --- |
| MLSQIAICIWVESTAILQDCQRALSADRYQLQVCESGEMLLEYAQTHRDQIDCLILVAANPSFRAVVQQLCFEGVVVPAIVVGDRDSEDPDEPAKEQLYHSAKLHLGIHQLEQLPYQVDAALAEFLRLAPVETMADHIMLMGANHDPELSSQQRDLAQRLQERLGYLGVYYKRDPDRFLRNLPAYESQKLHQAMQTSYREIVLSYFSPNSNLNQSIDNFVNMAFFADVPVTKVVEIHMELMDEFAKKLRVEGRSEDILLDYRLTLIDVIAHLCEMYRRSIPRET [E103K] | increasing interaction |
